What was measured:
E. coli LigA [1] = assay type: biochemical; details: specific activity by protein titration under steady-state conditions, normalized to wild-type ligase
Procedure: (§1) FIG. 12A: Aliquots (5 μg) of wild-type (WT) E. coli ligase, N-terminal deletion mutants NΔ38 and NΔ78, and the full-length ligase proteins containing the indicated alanine mutations in domain Ia were analyzed by SDS-PAGE. A Coomassie blue-stained gel is shown. FIG. 12B: Ligase adenylation reaction mixtures (20 μl) containing 50 mM Tris-HCl (pH 7.5), 5 mM DTT, 5 mM MgCl2, 1 μM [α-^32P]NAD^+ and 8 pmol of WT ligase, NΔ38, NΔ78, or the indicated alanine mutants were incubated for 5 min at 37° C. The reaction products were resolved by SDS-PAGE and visualized by autoradiography. FIG. 12C: Nick joining reaction mixtures (20 μl) containing 50 mM Tris-HCl (pH 7.5), 10 mM (NH4)2SO4, 5 mM DTT, 5 mM MgCl2, 20 μM NAD^+, 1 pmol of ^32P-labeled nicked DNA, and increasing amounts of WT ligase or the indicated alanine mutants were incubated for 10 min at 22° C. The extents of ligation are plotted as a function of input protein.
To further probe the role of domain Ia in NAD^+ recognition and nucleotidyl transfer, single alanine substitutions were introduced at six positions in the Ia domain of E. coli LigA. The six mutated Eco ligase residues—Glu10, Tyr22, His23, Asp32, Tyr35, and Asp36—correspond to the six residues that were subjected to alanine scanning mutagenesis in AmEPV ligase (FIG. 11). […] The conserved positions are denoted by shaded boxes in FIG. 11. The Eco ligase mutants E10A, Y22A, H23A, D32A, Y35A, and D36A were produced in E. coli and purified by Ni-agarose chromatography in parallel with wild-type ligase (FIG. 12A).
To evaluate the roles of charge, hydrogen bonding potential, and steric constraints in the functions of the domain Ia residues implicated in the step 1 reaction with NAD^+, the effects of conservative substitutions were tested. Tyr22 and Tyr35 were replaced by Phe and Ser, His23 was changed to Tyr, and Asp32 and Asp36 were mutated to Glu and Asn. The recombinant mutant ligases were purified from soluble bacterial extracts by Ni-agarose chromatography (FIG. 15A). The specific activity of each mutant was determined under steady-state conditions by protein titration and normalized to the specific activity of wild-type ligase.

E. coli LigA [2] = assay type: biochemical; details: for rate of ligase adenylation (kinetic pattern): 1 μM [32P-AMP]NAD+, 15-120 s; for ligase adenylation (ligase-AMP formation) with NAD+: qualitative
Procedure: as §1
FIG. 15A: Aliquots (5 μg) of wild-type (WT) E. coli ligase and proteins containing the indicated mutations in domain Ia were analyzed by SDS-PAGE. The Coomassie blue-stained gel is shown. The positions and sizes (in kDa) of marker proteins are indicated on the left. FIG. 15B: Ligase adenylation reaction mixtures (20 μl) containing 50 mM Tris-HCl (pH 7.5), 5 mM DTT, 5 mM MgCl2, 1 μM [α-^32P]NAD^+ and 8 pmol of WT ligase or the indicated mutants were incubated for 5 min at 37° C. The reaction products were resolved by SDS-PAGE and visualized by autoradiography.
Reaction mixtures containing (per 20 μl) 50 mM Tris-HCl (pH 7.5), 5 mM DTT, 5 mM MgCl2, 1 μM [^32P-AMP]NAD^+ and 8 pmol of ligase were incubated at 22° C. Aliquots (20 μl) were withdrawn at 15, 30, 60 and 120 s and then quenched immediately with SDS. The products were analyzed by SDS-PAGE. Formation of the ligase-[^32P]AMP adduct is plotted as a function of time.
The first step in DNA ligation involves formation of a covalent enzyme-adenylate intermediate.

B1: D32N: E. coli LigA with Asp32 mutated to Asn (protein, UniProt P15042 1-671, looked up, variant D32N)
DNA ligase: MESIEQQLTELRTTLRHHEYLYHVMDAPEIPNAEYDRLMRELRELETKHPELITPDSPTQRVGAAPLAAFSQIRHEVPMLSLDNVFDEESFLAFNKRVQDRLKNNEKVTWCCELKLDGLAVSILYENGVLVSAATRGDGTTGEDITSNVRTIRAIPLKLHGENIPARLEVRGEVFLPQAGFEKINEDARRTGGKVFANPRNAAAGSLRQLDPRITAKRPLTFFCYGVGVLEGGELPDTHLGRLLQFKKWGLPVSDRVTLCESAEEVLAFYHKVEEDRPTLGFDIDGVVIKVNSLAQQEQLGFVARAPRWAVAFKFPAQEQMTFVRDVEFQVGRTGAITPVARLEPVHVAGVLVSNATLHNADEIERLGLRIGDKVVIRRAGDVIPQVVNVVLSERPEDTREVVFPTHCPVCGSDVERVEGEAVARCTGGLICGAQRKESLKHFVSRRAMDVDGMGDKIIDQLVEKEYVHTPADLFKLTAGKLTGLERMGPKSAQNVVNALEKAKETTFARFLYALGIREVGEATAAGLAAYFGTLEALEAASIEELQKVPDVGIVVASHVHNFFAEESNRNVISELLAEGVHWPAPIVINAEEIDSPFAGKTVVLTGSLSQMSRDDAKARLVELGAKVAGSVSKKTDLVIAGEAAGSKLAKAQELGIEVIDEAEMLRLLGS
Nick Joining Activity (% of WT) (E. coli LigA [1]): 9 % of WT | rate of ligase adenylation (kinetic pattern) (E. coli LigA [2]): faster than D32E | ligase adenylation (ligase-AMP formation) with NAD+ (E. coli LigA [2]): partially active

B2: D36N: E. coli LigA with Asp36 mutated to Asn (protein, UniProt P15042 1-671, looked up, variant D36N)
DNA ligase: MESIEQQLTELRTTLRHHEYLYHVMDAPEIPDAEYNRLMRELRELETKHPELITPDSPTQRVGAAPLAAFSQIRHEVPMLSLDNVFDEESFLAFNKRVQDRLKNNEKVTWCCELKLDGLAVSILYENGVLVSAATRGDGTTGEDITSNVRTIRAIPLKLHGENIPARLEVRGEVFLPQAGFEKINEDARRTGGKVFANPRNAAAGSLRQLDPRITAKRPLTFFCYGVGVLEGGELPDTHLGRLLQFKKWGLPVSDRVTLCESAEEVLAFYHKVEEDRPTLGFDIDGVVIKVNSLAQQEQLGFVARAPRWAVAFKFPAQEQMTFVRDVEFQVGRTGAITPVARLEPVHVAGVLVSNATLHNADEIERLGLRIGDKVVIRRAGDVIPQVVNVVLSERPEDTREVVFPTHCPVCGSDVERVEGEAVARCTGGLICGAQRKESLKHFVSRRAMDVDGMGDKIIDQLVEKEYVHTPADLFKLTAGKLTGLERMGPKSAQNVVNALEKAKETTFARFLYALGIREVGEATAAGLAAYFGTLEALEAASIEELQKVPDVGIVVASHVHNFFAEESNRNVISELLAEGVHWPAPIVINAEEIDSPFAGKTVVLTGSLSQMSRDDAKARLVELGAKVAGSVSKKTDLVIAGEAAGSKLAKAQELGIEVIDEAEMLRLLGS
Nick Joining Activity (% of WT) (E. coli LigA [1]): 12 % of WT | rate of ligase adenylation (kinetic pattern) (E. coli LigA [2]): faster than D36E | ligase adenylation (ligase-AMP formation) with NAD+ (E. coli LigA [2]): partially active

B3: D32E: E. coli LigA with Asp32 mutated to Glu (protein, UniProt P15042 1-671, looked up, variant D32E)
DNA ligase: MESIEQQLTELRTTLRHHEYLYHVMDAPEIPEAEYDRLMRELRELETKHPELITPDSPTQRVGAAPLAAFSQIRHEVPMLSLDNVFDEESFLAFNKRVQDRLKNNEKVTWCCELKLDGLAVSILYENGVLVSAATRGDGTTGEDITSNVRTIRAIPLKLHGENIPARLEVRGEVFLPQAGFEKINEDARRTGGKVFANPRNAAAGSLRQLDPRITAKRPLTFFCYGVGVLEGGELPDTHLGRLLQFKKWGLPVSDRVTLCESAEEVLAFYHKVEEDRPTLGFDIDGVVIKVNSLAQQEQLGFVARAPRWAVAFKFPAQEQMTFVRDVEFQVGRTGAITPVARLEPVHVAGVLVSNATLHNADEIERLGLRIGDKVVIRRAGDVIPQVVNVVLSERPEDTREVVFPTHCPVCGSDVERVEGEAVARCTGGLICGAQRKESLKHFVSRRAMDVDGMGDKIIDQLVEKEYVHTPADLFKLTAGKLTGLERMGPKSAQNVVNALEKAKETTFARFLYALGIREVGEATAAGLAAYFGTLEALEAASIEELQKVPDVGIVVASHVHNFFAEESNRNVISELLAEGVHWPAPIVINAEEIDSPFAGKTVVLTGSLSQMSRDDAKARLVELGAKVAGSVSKKTDLVIAGEAAGSKLAKAQELGIEVIDEAEMLRLLGS
Nick Joining Activity (% of WT) (E. coli LigA [1]): 0.4 % of WT | ligase adenylation (ligase-AMP formation) with NAD+ (E. coli LigA [2]): more severely affected

B4: D36E: E. coli LigA with Asp36 mutated to Glu (protein, UniProt P15042 1-671, looked up, variant D36E)
DNA ligase: MESIEQQLTELRTTLRHHEYLYHVMDAPEIPDAEYERLMRELRELETKHPELITPDSPTQRVGAAPLAAFSQIRHEVPMLSLDNVFDEESFLAFNKRVQDRLKNNEKVTWCCELKLDGLAVSILYENGVLVSAATRGDGTTGEDITSNVRTIRAIPLKLHGENIPARLEVRGEVFLPQAGFEKINEDARRTGGKVFANPRNAAAGSLRQLDPRITAKRPLTFFCYGVGVLEGGELPDTHLGRLLQFKKWGLPVSDRVTLCESAEEVLAFYHKVEEDRPTLGFDIDGVVIKVNSLAQQEQLGFVARAPRWAVAFKFPAQEQMTFVRDVEFQVGRTGAITPVARLEPVHVAGVLVSNATLHNADEIERLGLRIGDKVVIRRAGDVIPQVVNVVLSERPEDTREVVFPTHCPVCGSDVERVEGEAVARCTGGLICGAQRKESLKHFVSRRAMDVDGMGDKIIDQLVEKEYVHTPADLFKLTAGKLTGLERMGPKSAQNVVNALEKAKETTFARFLYALGIREVGEATAAGLAAYFGTLEALEAASIEELQKVPDVGIVVASHVHNFFAEESNRNVISELLAEGVHWPAPIVINAEEIDSPFAGKTVVLTGSLSQMSRDDAKARLVELGAKVAGSVSKKTDLVIAGEAAGSKLAKAQELGIEVIDEAEMLRLLGS
Nick Joining Activity (% of WT) (E. coli LigA [1]): 4 % of WT | ligase adenylation (ligase-AMP formation) with NAD+ (E. coli LigA [2]): more severely affected

Source: patent publication US6787341B2, “Pharmacological targeting of bacterial DNA ligase for treatment and prevention of bacterial infections” (priority 2001, dated 2004)
